{"source": "the supplement of paper PMC10567573", "parents": {"B1": {"name": "TBX5 (parent)", "chain": "YQNHKITQLKIENNPFAKGFRGSD"}}}
{"variants_of": "B1", "test": "protein stability index of a GFP-peptide fusion (GPS, HEK-293T) (PSI 1-6); higher = more stable", "settings": "c terminus: a fixed tail appended"}
{"variant": "YQNHKITQLKIENNPFSKGFRGSD", "note": "[A17S]", "protein stability index": 2.01}
{"variant": "YQNHKITQLKIENNPFVKGFRGSD", "note": "[A17V]", "protein stability index": 2.73}
{"variant": "YQNHKITQLKIENNPFWKGFRGSD", "note": "[A17W]", "protein stability index": 1.98}
{"variant": "YQNHKITQLKIENNPFAKGFRGYD", "note": "[S23Y]", "protein stability index": 2.55}
{"variant": "YQNHKITQLKIENNPFAKGFRGFD", "note": "[S23F]", "protein stability index": 1.92}
{"variant": "YQNHKITQLKIENNPFAKGFRGDD", "note": "[S23D]", "protein stability index": 2.83}
{"variant": "YQNHKITQLKIENNPFAKGFRGND", "note": "[S23N]", "protein stability index": 2.39}
{"variant": "YQNHKITQLKIENNPFAKGFRGKD", "note": "[S23K]", "protein stability index": 2.64}
{"variant": "YQNHKITQLKIENNPFAKGFRGWD", "note": "[S23W]", "protein stability index": 2.02}
{"variant": "YQNHKITQLKIENNPGAKGFRGSD", "note": "[F16G]", "protein stability index": 2.83}
{"variant": "YQNHKITQLKIENNPHAKGFRGSD", "note": "[F16H]", "protein stability index": 3.54}
{"variant": "YQNHKITQLKIENNPSAKGFRGSD", "note": "[F16S]", "protein stability index": 3.56}
{"variant": "YQNHKITQLKIENNPKAKGFRGSD", "note": "[F16K]", "protein stability index": 3.31}
{"variant": "YQNHKITQLKIENNPFAKGFHGSD", "note": "[R21H]", "protein stability index": 2.52}
{"variant": "YQNHKITQLKIENNPFAKGFAGSD", "note": "[R21A]", "protein stability index": 2.32}
{"variant": "YQNHKITQLKIENNPFAKGFYGSD", "note": "[R21Y]", "protein stability index": 2.96}
{"variant": "YQNHKITQLKIENNPFAKGFTGSD", "note": "[R21T]", "protein stability index": 2.44}
{"variant": "RQNHKITQLKIENNPFAKGFRGSD", "note": "[Y1R]", "protein stability index": 3.61}
{"variant": "NQNHKITQLKIENNPFAKGFRGSD", "note": "[Y1N]", "protein stability index": 3.35}
{"variant": "AQNHKITQLKIENNPFAKGFRGSD", "note": "[Y1A]", "protein stability index": 3.46}
{"variant": "DQNHKITQLKIENNPFAKGFRGSD", "note": "[Y1D]", "protein stability index": 3.46}
{"variant": "SQNHKITQLKIENNPFAKGFRGSD", "note": "[Y1S]", "protein stability index": 2.82}
{"variant": "QQNHKITQLKIENNPFAKGFRGSD", "note": "[Y1Q]", "protein stability index": 3.68}
{"variant": "YQNHVITQLKIENNPFAKGFRGSD", "note": "[K5V]", "protein stability index": 2.44}
{"variant": "YQNHRITQLKIENNPFAKGFRGSD", "note": "[K5R]", "protein stability index": 2.38}
{"variant": "YQNHDITQLKIENNPFAKGFRGSD", "note": "[K5D]", "protein stability index": 3.06}
{"variant": "YQNIKITQLKIENNPFAKGFRGSD", "note": "[H4I]", "protein stability index": 2.11}
{"variant": "YQNTKITQLKIENNPFAKGFRGSD", "note": "[H4T]", "protein stability index": 2.44}
{"variant": "YQNCKITQLKIENNPFAKGFRGSD", "note": "[H4C]", "protein stability index": 1.67}
{"variant": "YQNHKITQLKIENNEFAKGFRGSD", "note": "[P15E]", "protein stability index": 2.69}
{"variant": "YQNHKITQLKIENNVFAKGFRGSD", "note": "[P15V]", "protein stability index": 2.38}
{"variant": "YQNHKITQLKIENNHFAKGFRGSD", "note": "[P15H]", "protein stability index": 2.35}
{"variant": "YQNHKITQLKIENNWFAKGFRGSD", "note": "[P15W]", "protein stability index": 1.87}
{"variant": "YQNHKITQLKIENNQFAKGFRGSD", "note": "[P15Q]", "protein stability index": 2.32}
{"variant": "YQNHKITQLKIENNCFAKGFRGSD", "note": "[P15C]", "protein stability index": 2.34}
{"variant": "YQNHKITQLKIENNDFAKGFRGSD", "note": "[P15D]", "protein stability index": 3.34}
{"variant": "YQNHKITQLQIENNPFAKGFRGSD", "note": "[K10Q]", "protein stability index": 2.5}
{"variant": "YQNHKITQLPIENNPFAKGFRGSD", "note": "[K10P]", "protein stability index": 3.2}
{"variant": "YQNHKITQLKIENNPFAKIFRGSD", "note": "[G19I]", "protein stability index": 1.85}
{"variant": "YQNHKITQLKIENNPFAKDFRGSD", "note": "[G19D]", "protein stability index": 2.7}
{"variant": "YQNHKITQLKIENNPFAKSFRGSD", "note": "[G19S]", "protein stability index": 2.76}
{"variant": "YQNHKITQLKIENNPFAKTFRGSD", "note": "[G19T]", "protein stability index": 2.53}
{"variant": "YQNHKITQLKIENNPFAKKFRGSD", "note": "[G19K]", "protein stability index": 2.59}
{"variant": "YQNHKITQLKIENNPFAKLFRGSD", "note": "[G19L]", "protein stability index": 2.05}
{"variant": "YQNHKITQLKIENNPFAKVFRGSD", "note": "[G19V]", "protein stability index": 2.31}
{"variant": "YQNHKITQLKIENNPFAKYFRGSD", "note": "[G19Y]", "protein stability index": 2.36}
{"variant": "YQNHKITQLKIENNPFAKMFRGSD", "note": "[G19M]", "protein stability index": 2.29}
{"variant": "YRNHKITQLKIENNPFAKGFRGSD", "note": "[Q2R]", "protein stability index": 2.61}
{"variant": "YWNHKITQLKIENNPFAKGFRGSD", "note": "[Q2W]", "protein stability index": 2.04}
{"variant": "YCNHKITQLKIENNPFAKGFRGSD", "note": "[Q2C]", "protein stability index": 2.54}
{"variant": "YHNHKITQLKIENNPFAKGFRGSD", "note": "[Q2H]", "protein stability index": 1.46}
{"variant": "YQNHKITQLKIENNPFAKGCRGSD", "note": "[F20C]", "protein stability index": 2.85}
{"variant": "YQNHKITQLKIENNPFAKGMRGSD", "note": "[F20M]", "protein stability index": 2.69}
{"variant": "YQNHKITQLKIENNPFAKGNRGSD", "note": "[F20N]", "protein stability index": 3.28}
{"variant": "YQNHKITQLKIENNPFAKGRRGSD", "note": "[F20R]", "protein stability index": 3.02}
{"variant": "YQNHKITQLKIENNPFAKGYRGSD", "note": "[F20Y]", "protein stability index": 2.49}
{"variant": "YQNHKITQLKIENLPFAKGFRGSD", "note": "[N14L]", "protein stability index": 2.52}
{"variant": "YQNHKITQLKIENGPFAKGFRGSD", "note": "[N14G]", "protein stability index": 2.46}
{"variant": "YQNHKITQLKIENKPFAKGFRGSD", "note": "[N14K]", "protein stability index": 2.75}
{"variant": "YQNHKITQLKIENDPFAKGFRGSD", "note": "[N14D]", "protein stability index": 2.84}
{"variant": "YQNHKITQLKIENPPFAKGFRGSD", "note": "[N14P]", "protein stability index": 2.52}
{"variant": "YQNHKITQLKIENHPFAKGFRGSD", "note": "[N14H]", "protein stability index": 2.36}
{"variant": "YQNHKITQLKIENIPFAKGFRGSD", "note": "[N14I]", "protein stability index": 2.41}
{"variant": "YQNHKGTQLKIENNPFAKGFRGSD", "note": "[I6G]", "protein stability index": 2.3}
{"variant": "YQNHKETQLKIENNPFAKGFRGSD", "note": "[I6E]", "protein stability index": 3.16}
{"variant": "YQNHKDTQLKIENNPFAKGFRGSD", "note": "[I6D]", "protein stability index": 3.53}
{"variant": "YQNHKWTQLKIENNPFAKGFRGSD", "note": "[I6W]", "protein stability index": 4.36}
{"variant": "YQNHKHTQLKIENNPFAKGFRGSD", "note": "[I6H]", "protein stability index": 2.83}
{"variant": "YQNHKYTQLKIENNPFAKGFRGSD", "note": "[I6Y]", "protein stability index": 2.53}
{"variant": "YQNHKKTQLKIENNPFAKGFRGSD", "note": "[I6K]", "protein stability index": 3.27}
{"variant": "YQYHKITQLKIENNPFAKGFRGSD", "note": "[N3Y]", "protein stability index": 1.99}
{"variant": "YQRHKITQLKIENNPFAKGFRGSD", "note": "[N3R]", "protein stability index": 2.44}
{"variant": "YQNHKITSLKIENNPFAKGFRGSD", "note": "[Q8S]", "protein stability index": 2.13}
{"variant": "YQNHKITYLKIENNPFAKGFRGSD", "note": "[Q8Y]", "protein stability index": 1.57}
{"variant": "YQNHKITELKIENNPFAKGFRGSD", "note": "[Q8E]", "protein stability index": 2.97}
{"variant": "YQNHKITQLKIENNPFALGFRGSD", "note": "[K18L]", "protein stability index": 2.06}
{"variant": "YQNHKITQLKIEDNPFAKGFRGSD", "note": "[N13D]", "protein stability index": 2.48}
{"variant": "YQNHKITQLKIEENPFAKGFRGSD", "note": "[N13E]", "protein stability index": 2.36}
{"variant": "YQNHKITQLKIELNPFAKGFRGSD", "note": "[N13L]", "protein stability index": 1.67}
{"variant": "YQNHKITQLKIEYNPFAKGFRGSD", "note": "[N13Y]", "protein stability index": 1.77}
{"variant": "YQNHKITQLKIEFNPFAKGFRGSD", "note": "[N13F]", "protein stability index": 1.94}
{"variant": "YQNHKITQLKIEQNPFAKGFRGSD", "note": "[N13Q]", "protein stability index": 2.55}
{"variant": "YQNHKITQLKIQNNPFAKGFRGSD", "note": "[E12Q]", "protein stability index": 2.22}
{"variant": "YQNHKITQLKILNNPFAKGFRGSD", "note": "[E12L]", "protein stability index": 2.17}
{"variant": "YQNHKITQLKIWNNPFAKGFRGSD", "note": "[E12W]", "protein stability index": 1.49}
{"variant": "YQNHKITQQKIENNPFAKGFRGSD", "note": "[L9Q]", "protein stability index": 3.19}
{"variant": "YQNHKITQTKIENNPFAKGFRGSD", "note": "[L9T]", "protein stability index": 2.37}
{"variant": "YQNHKITQAKIENNPFAKGFRGSD", "note": "[L9A]", "protein stability index": 2.83}
{"variant": "YQNHKITQEKIENNPFAKGFRGSD", "note": "[L9E]", "protein stability index": 3.09}
{"variant": "YQNHKITQLKIENNPFAKGFRGSP", "note": "[D24P]", "protein stability index": 2.39}
{"variant": "YQNHKITQLKIENNPFAKGFRGSW", "note": "[D24W]", "protein stability index": 1.32}
{"variant": "YQNHKITQLKIENNPFAKGFRGSS", "note": "[D24S]", "protein stability index": 2.14}
{"variant": "YQNHKITQLKIENNPFAKGFRGSQ", "note": "[D24Q]", "protein stability index": 1.88}
{"variant": "YQNHKITQLKIENNPFAKGFRGSI", "note": "[D24I]", "protein stability index": 2.08}
